Measured values reported in the RNAGym collection of RNA variant scans (doi:10.7554/elife.80360).

B1: HDV Ribozyme (parent)
chain: GGCCGGCAUGGUCCCAGCCUCCUCGCUGGCGCCGGCUGGGCAACAUUCCGAGGGGACCGUCCCCUCGGUAAUGGCGAAUGGGACCCA

Variants of: B1
Test: self-cleavage, relative activity (ratio to wild type); higher = more cleavage; co-transcriptional

Row | Variant | self-cleavage
1 | C33G G34U | 0.0997
2 | G52U A78U | 0.378
3 | U69C C86U | 0.727
4 | G10U G25U | 0.125
5 | C7U A83C | 0.287
6 | C4U C7G | 0
7 | A78U G80U | 0.244
8 | A71G G81A | 0.475
9 | A70G A78G | 0.655
10 | C24G G25U | 0.0773
11 | G28C C64A | 0.104
12 | C48A G55C | 1.06
13 | C22A G28C | 0
14 | U12A A71U | 0.262
15 | C18A C36U | 0.0386
16 | G39C C48G | 0.262
17 | U23G C64A | 0.89
18 | C21U U60C | 0.219
19 | G1C C49G | 0.0898
20 | C36G G59A | 0.169
21 | G2C G10A | 0.145
22 | G55U G68C | 0.744
23 | U9G U46G | 0.646
24 | C22G A42C | 0.185

Row | Variant | self-cleavage
25 | G34U C41A | 0.133
26 | G53C C66U | 0.918
27 | G2A C18A | 0.0236
28 | U69C G76A | 1.07
29 | C30A G55C | 0.653
30 | C48U A71C | 0.789
31 | U27G C32A | 0.185
32 | C13A G82C | 0.17
33 | C7U C48A | 0.767
34 | A70G G73A | 0.432
35 | U12C G31C | 0.123
36 | U37A G81C | 0.227
37 | C41A A78G | 0.534
38 | G54A A56C | 1.03
39 | C15U G55U | 0.729
40 | G35C G73U | 0.181
41 | C57A U65G | 1.04
42 | G31U C63A | 0.468
43 | C7U C85G | 0.985
44 | C4U C30U | 0.332
45 | U23G A43G | 0.138
46 | G10A A45U | 0.534
47 | C26G G29A | 0.208
48 | G2A G38C | 0.07

Row | Variant | self-cleavage
49 | C15G U72G | 0.128
50 | G59U G67C | 0.963
51 | G25A G76U | 0.3
52 | C13G U69C | 0.111
53 | C58U C86A | 1.01
54 | C30G U37A | 0.0462
55 | G34C A83G | 0.0959
56 | G34A G76A | 0.257
57 | G39A C57A | 0.41
58 | G59U C64U | 1.05
59 | C4A U65C | 0.567
60 | C18G C24G | 0.0504
61 | A8U C19U | 0.0308
62 | U12G G50C | 0.727
63 | C32U G40U | 0.758
64 | G53A C62U | 0.926
65 | G31A C61U | 0.442
66 | C22G G76C | 0.151
67 | G11C C13G | 0.0437
68 | C57G G76U | 0.984
69 | U37G A43C | 0.133
70 | C33A G54C | 0.222
71 | G29U A70G | 0.0396
72 | G6U C44G | 0.268

Row | Variant | self-cleavage
73 | A8G G53U | 1.02
74 | G34C A56U | 0.277
75 | C4A A45U | 0.095
76 | C33G A87C | 0.0839
77 | C18G A42G | 0.115
78 | G38C C86U | 0.145
79 | U69A A87C | 1.01
80 | C41U A42G | 0.872
81 | C24G A43G | 0.0354
82 | U27A C32U | 0.923
83 | G40C G82A | 0.233
84 | G10A U46C | 0.397
85 | C24G A51G | 0.111
86 | A8G G67A | 0.755
87 | A83U A87G | 0.531
88 | C15G A51G | 0.587
89 | G59U C84U | 0.865
90 | G11C C21A | 0.0755
91 | C26A G76U | 1.05
92 | C15G C62G | 0.237
93 | C18U G52A | 0.737
94 | G2C A42U | 0.0475
95 | G11U U46A | 0.18
96 | C44A C49A | 0.554

Row | Variant | self-cleavage
97 | C3G C30U | 0.156
98 | U20C C32A | 0.185
99 | C13G G81C | 0.229
100 | C3A C19U | 0.0134
101 | C14G C24A | 0.378
102 | G73U C85G | 0.437
103 | U46G C64A | 0.0831
104 | C48A G76C | 1.05
105 | G2C C36A | 0.138
106 | G1A U79C | 0.119
107 | G11A A78G | 0.193
108 | U37C U79G | 0.465
109 | G11A G73C | 0.0252
110 | C15G C26U | 0.623
111 | U20C C85U | 0.0475
112 | G52U U65A | 0.82
113 | C22A C57U | 0.343
114 | C30U G53C | 0.554
115 | U60G C62G | 0.703
116 | G25C A78C | 0.0773
117 | G34U U47A | 0.128
118 | G17A U65A | 0.752
119 | C30G G81A | 0.0978
120 | C15A G38U | 0

Row | Variant | self-cleavage
121 | G39C C85G | 0.298
122 | C62G G82A | 0.267
123 | C18A G59U | 0.113
124 | U46A A56G | 0.831
125 | C19G U79A | 0
126 | G54A C75U | 0.164
127 | G31A G53C | 0.305
128 | A8C A70C | 0.612
129 | A16C U69G | 0.923
130 | A77C U79A | 0.297
131 | A16U G28C | 0
132 | C22U C61U | 0.62
133 | G76A G80U | 0.441
134 | A42C G52A | 0.399
135 | U60A U72G | 0.467
136 | C44U U60G | 0.686
137 | U37A U69A | 0.101
138 | A51U G53U | 1.11
139 | G29C C84G | 0.208
140 | G29C C84A | 0.0831
141 | C26U A45G | 0.831
142 | C30A U79C | 0.216
143 | G17A G53A | 1.02
144 | C57U C84U | 0.856

Row | Variant | self-cleavage
145 | G25A G68A | 0.179
146 | G6A U12C | 0.277
147 | C66A G76U | 0.981
148 | C15U A42U | 0.322
149 | C49U C66A | 0.984
150 | U72G A77U | 0.185
151 | G39U A45U | 0.325
152 | C24U G34A | 0.0292
153 | G6C C32G | 1.1
154 | G25U C64U | 0.113
155 | G5A U65A | 0.259
156 | C15G C36G | 0
157 | U12C C18U | 0.111
158 | G34A G67C | 0.0707
159 | G17C U72G | 0.161
160 | C36A U47G | 0.208
161 | C15U A78U | 0.185
162 | C64G A83U | 0.508
163 | C14U G17A | 0.514
164 | A8C C86A | 0.72
165 | A45G G73U | 0.415
166 | C26G C86U | 0.831
167 | G81A A87C | 0.455
